Seven proteins from patent US20190212291 can be followed below.

Series [1] deals with PEG-T40-Q.
Series [2] has as its target PEG-T53-Q.
Series [3] has as its target T1, PEG-T7-Q.
T1 chain: GGPLGVRGKKC

For series [4], the target named is PEG-T41-Q.
The target of series [5] is PEG-T54-Q.
The target in series [6] is PEG-T49-Q.
The target of series [7] is PEG-T50-Q.
The target in series [8] is PEG-T51-Q.
Series [9] addresses PEG-T58-Q.

B1: MMP26 (protein)
chain: TSISPGRCKWNKHTLTYRIINYPHDMKPSAVKDSIYNAVSIWSNVTPLIFQQVQNGDADIKVSFWQWAHEDGWPFDGPGGILGHAFLPNSGNPGVVHFDKNEHWSASDTGYNLFLVATHEIGHSLGLQHSGNQSSIMYPTYWYHDPRTFQLSADDIQRIQHLYGEKCSSDIP
On to B1, for which, in series [1], the “Top hit (cleavage of PEG-coupled FRET substrate by recombinant proteases)” value is reported as “MMP26”; the substrate cleavage result was “T40 and T51 are cleaved by MMP26 and KLK4, respectively”. Also, the “Second hit (cleavage of PEG-coupled FRET substrate by recombinant proteases)” value (shortened to “Second hit”) in series [2] is “MMP26”. The “Second hit” value in [3] is on record as “MMP26”.

B2: ADAM12 (protein)
chain: ETLKATKYVELVIVADNREFQRQGKDLEKVKQRLIEIANHVDKFYRPLNIRIVLVGVEVWNDMDKCSVSQDPFTSLHEFLDWRKMKLLPRKSHDNAQLVSGVYFQGTTIGMAPIMSMCTADQSGGIVMDHSDNPLGAAVTLAHELGHNFGMNHDTLDRGCSCQMAVEKGGCIMNASTGYPFPMVFSSCSRKDLETSLEKGMGVCLFNLPEVRESFGGQKCGNRFVEEGEECDCGEPEECMNRCCNATTCTLKPDAVCAHGLCCEDCQLKPAGTACRDSSNSCDLPEFCTGASPHCPANVYLHDGHSCQDVDGYCYNGICQTHEQQCVTLWGPGAKPAPGICFERVNSAGDPYGNCGKVSKSSFAKCEMRDAKCGKIQCQGGASRPVIGTNAVSIETNIPLQQGGRILCRGTHVYLGDDMPDPGLVLAGTKCADGKICLNRQCQNISVFGVHECAMQCHGRGVCNNRKNCHCEAHWAPPFCDKFGFGGSTDSGPIRQADNQG
For B2, the “Second hit” value in series [1] is “ADAM12”. In addition, the “Top hit (cleavage of PEG-coupled FRET substrate by recombinant proteases); additional note: Poorly cleaved” value in series [4] is listed as “ADAM12”. Further, in [5], the “Top hit (cleavage of PEG-coupled FRET substrate by recombinant proteases)” value was “ADAM12”.

B3: KLK14 (protein)
chain: IIGGHTCTRSSQPWQAALLAGPRRRFLCGGALLSGQWVITAAHCGRPILQVALGKHNLRRWEATQQVLRVVRQVTHPNYNSRTHDNDLMLLQLQQPARIGRAVRPIEVTQACASPGTSCRVSGWGTISSPIARYPASLQCVNINISPDEVCQKAYPRTITPGMVCAGVPQGGKDSCQGDSGGPLVCRGQLQGLVSWGMERCALPGYPGVYTNLCKYRSWIEETMRDK
For the protein B3, the “Top hit (cleavage of PEG-coupled FRET substrate by recombinant proteases)” value in series [6] and in [7] was “KLK14” in each case.

B4: KLK4 (protein)
chain: IINGEDCSPHSQPWQAALVMENELFCSGVLVHPQWVLSAAHCFQNSYTIGLGLHSLEADQEPGSQMVEASLSVRHPEYNRPLLANDLMLIKLDESVSESDTIRSISIASQCPTAGNSCLVSGWGLLANGRMPTVLQCVNVSVVSEEVCSKLYDPLYHPSMFCAGGGHDQKDSCNGDSGGPLICNGYLQGLVSFGKAPCGQVGVPGVYTNLCKFTEWIEKTVQAS
Regarding B4, in series [8], the “Top hit (cleavage of PEG-coupled FRET substrate by recombinant proteases)” value is on record as “KLK4”; the substrate cleavage entry is “T40 and T51 are cleaved by MMP26 and KLK4, respectively”.

B5: MMP11 (protein)
chain: FVLSGGRWEKTDLTYRILRFPWQLVQEQVRQTMAEALKVWSDVTPLTFTEVHEGRADIMIDFARYWHGDDLPFDGPGGILAHAFFPKTHREGDVHFDYDETWTIGDDQGTDLLQVAAHEFGHVLGLQHTTAAKALMSAFYTFRYPLSLSPDDCRGVQHLYGQPWPTVTSRTPALG
For B5, the “Top hit (cleavage of PEG-coupled FRET substrate by recombinant proteases)” value in series [2] is “MMP11”.

B6: PRSS3 (protein)
chain: IVGGYTCEENSLPYQVSLNSGSHFCGGSLISEQWVVSAAHCYKTRIQVRLGEHNIKVLEGNEQFINAAKIIRHPKYNRDTLDNDIMLIKLSSPAVINARVSTISLPTTPPAAGTECLISGWGNTLSFGADYPDELKCLDAPVLTQAECKASYPGKITNSMFCVGFLEGGKDSCQRDSGGPVVCNGQLQGVVSWGHGCAWKNRPGVYTKVYNYVDWIKDTIAANS
For the protein B6, the “Second hit” value in [6] and in [9] was “PRSS3” each time.

B7: KLK12 (protein)
chain: IFNGTECGRNSQPWQVGLFEGTSLRCGGVLIDHRWVLTAAHCSGSRYWVRLGEHSLSQLDWTEQIRHSGFSVTHPGYLGASTSHEHDLRLLRLRLPVRVTSSVQPLPLPNDCATAGTECHVSGWGITNHPRNPFPDLLQCLNLSIVSHATCHGVYPGRITSNMVCAGGVPGQDACQGDSGGPLVCGGVLQGLVSWGSVGPCGQDGIPGVYTYICKYVDWIRMIMRNN
Turning to B7, the “Second hit” value in series [7] is reported as “KLK12”.
